Data on 32 variants can be found in the RNAGym collection of RNA variant scans (doi:10.7554/elife.80360).

To fix the notation:
B1: HDV Ribozyme (parent)
chain: GGCCGGCAUGGUCCCAGCCUCCUCGCUGGCGCCGGCUGGGCAACAUUCCGAGGGGACCGUCCCCUCGGUAAUGGCGAAUGGGACCCA

In this series the parent is B1. Briefly: self-cleavage, relative activity (ratio to wild type); higher = more cleavage; co-transcriptional.
Take GGCCGGCAUGGUCCCAGCCUCCUAGCUGGCGCCGGCUGUGCAACAUUCCGAGGGGACCGUCCCCUCGGUAAUGGCGAAUGGGACCCA: the self-cleavage amounted to 0.211.

Consider GGCCGGCAUGGUCCCAGCCUCCUAGCCGGCGCCGGCUGGGCAACAUUCCGAGGGGACCGUCCCCUCGGUAAUGGCGAAUGGGACCCA, for which the self-cleavage worked out at 0.0791. Turning to GGCCGGCAUGGUCCCAGCCUCCUAGCAGGCGCCGGCUGGGCAACAUUCCGAGGGGACCGUCCCCUCGGUAAUGGCGAAUGGGACCCA, the self-cleavage is 0.639. For GGCCGGCAUGGUCCCAGCCUCCUAGCUGGCGCCGGCUGGGCAACAUUCCGAGGGGACCGUCCCAUCGGUAAUGGCGAAUGGGACCCA the value was 0.803. Turning to GGCCGGCAUGGUCCCAGCCUCCUAGCUGGCGCCGGCUGGGCAACAUUCCGAGGGGAGCGUCCCCUCGGUAAUGGCGAAUGGGACCCA, the self-cleavage was found to be 0.869. With GGCCGGCAUGGUCCCAGCCUCCUAGCUGGCGCCGGCUGGGCAACAUUCCGAGGGGACCGUACCCUCGGUAAUGGCGAAUGGGACCCA, the self-cleavage came out at 0.906. Regarding GGCCGGCAUGGUCCCAGCCUCCUAGCUGGCGCCGGCUGGGCAACAUUCCGAGGGGACCGUCACCUCGGUAAUGGCGAAUGGGACCCA, the self-cleavage was 0.946. Consider GGCCGGCAUGGUCCCAGCCUCCUAGCUGGCGCCGGCUGGGCAACAUUCCGAGGGGACCGUCUCCUCGGUAAUGGCGAAUGGGACCCA, for which the self-cleavage is 0.89. Turning to GGCCGGCAUGGUCCCAGCCUCCUAGCUGGAGCCGGCUGGGCAACAUUCCGAGGGGACCGUCCCCUCGGUAAUGGCGAAUGGGACCCA, the self-cleavage worked out at 0.237. For GGCCGGCAUGGUCCCAGCCUCCUAGCUCGCGCCGGCUGGGCAACAUUCCGAGGGGACCGUCCCCUCGGUAAUGGCGAAUGGGACCCA the value was 0.0773; for GGCCGGCAUGGUCCCAGCCUCCUAGCUGGCGCCAGCUGGGCAACAUUCCGAGGGGACCGUCCCCUCGGUAAUGGCGAAUGGGACCCA, 0.166; for GGCCGGCAUGGUCCCAGCCUCCUAGCUGGCGCCCGCUGGGCAACAUUCCGAGGGGACCGUCCCCUCGGUAAUGGCGAAUGGGACCCA, 0.0852. As for GGCCGGCAUGGUCCCAGCCUCCUGGCUGGCGCCGGCUGGGCAACAUUCCGAGGGGACCGUCCCCUCGGUAAUGGCGAAUGGGACCUA, the self-cleavage was determined as 0.17. As to GGCCGGCAUGGUCCCAGCCUCCUAGCUGGCGCCGGCUGGGCAACAUUCCGAGGGGACCAUCCCCUCGGUAAUGGCGAAUGGGACCCA, the self-cleavage amounted to 0.842.

With GGCCGGCAUGGUCCCAGCCUCCUAGCUGGCGCCGGCUGGGCAACAUUCCGAGGGGACCGUCCCCUCGGUAAUGGCGAAUGUGACCCA, the self-cleavage was 0.185. For the variant GGCCGGCAUGGUCCCAGCCUCCUAGCUGGCGCCGGCUGGGCAACAUACCGAGGGGACCGUCCCCUCGGUAAUGGCGAAUGGGACCCA, the self-cleavage turned out to be 0.554. On to GGCCGGCAUGGUCCCAGCCUCCUAGCUGGCGCCGGCUGGGCAACAUUCCGAGGGGACCGUCCCCUCGGUGAUGGCGAAUGGGACCCA, for which the self-cleavage is 0.804.

Turning to GGCCGGCAUGGUCCCAGCCUCCUGGCUGGCGCCGGCUGGGCAACAUUCCGAGGGGACCGUCCGCUCGGUAAUGGCGAAUGGGACCCA, the self-cleavage was determined as 0.217.

In the case of GGCCGGCAUGGUCCCAGCCUCCUGGCUGGCGCCGGCUGGGCAACAUUGCGAGGGGACCGUCCCCUCGGUAAUGGCGAAUGGGACCCA, the self-cleavage is 0.0941. Regarding GGCCGGCAUGGUCCCAGCCUCCUAGCUGGCGCCGGCUGGGCAACAUUCUGAGGGGACCGUCCCCUCGGUAAUGGCGAAUGGGACCCA, the self-cleavage came to 0.623.

Regarding GGCCGGCAUGGUCCCAGCCUCCUAGCUGGCGCCGGCUGGGCAACAUUCCGAGGGGACCGUCCCCUCGUUAAUGGCGAAUGGGACCCA, the self-cleavage stood at 0.776. As for GGCCGGCAUGGUCCCAGCCUCCUGGCUGGCGCCGGCUGGGCAACAUUCCGAGGGGACCGUCCCCUCGGUAAUGGCGAAUGGGACCCA, the figure is 0.13.

In the case of GGCCGGCAUGGUCCCAGCCUCCUGGCUGGCGCCGGCUGGGCAACAUUCCGAGGGGACCGUCCCCUCGGUGAUGGCGAAUGGGACCCA, the self-cleavage worked out at 0.0594. For GGCCGGCAUGGUCCCAGCCUCCUAGCUGGCGCCGGCUGGGCAACAUUCCGAGGCGACCGUCCCCUCGGUAAUGGCGAAUGGGACCCA the value was 0.741; for GGCCGGCAUGGUCCCAGCCUCCUAGCUGGCGCCGGCUGGGCAACAUUCCGAGGAGACCGUCCCCUCGGUAAUGGCGAAUGGGACCCA, 0.774.

With GGCCGGCAUGGUCCCAGCCUCCUAGCUGGCGCCGGCUGGGCAACAUUCCGAGGGAACCGUCCCCUCGGUAAUGGCGAAUGGGACCCA, the self-cleavage came to 0.684. For GGCCGGCAUGGUCCCAGCCUCCUAGCUGGCGCCGGCUGGGCAACAUUCCGAGGGGACCGUCCCCUCGGUAAUGGCGAAUUGGACCCA the value was 0.198; for GGCCGGCAUGGUCCCAGCCUCCUGGCUGGCGCCGGCUGGGCAACAUUCCGAGGGGACCGUCCCCUCGGUAAUGGCGAAUGGGAACCA, 0.123; for GGCCGGCAUGGUCCCAGCCUCCUGGCUGGCGCCGGCUGGGCAACUUUCCGAGGGGACCGUCCCCUCGGUAAUGGCGAAUGGGACCCA, 0.0504. Regarding GGCCGGCAUGGUCCCAGCCUCCUAGCUGGCGCCGGCUGGGCAACAUUCCGAGCGGACCGUCCCCUCGGUAAUGGCGAAUGGGACCCA, the self-cleavage amounted to 0.785. For the variant GGCCGGCAUGGUCCCAGCCUCCUAGCUGGCGCCGGCUGGGCAACAUUCCGAGAGGACCGUCCCCUCGGUAAUGGCGAAUGGGACCCA, the self-cleavage came out at 0.893. Turning to GGCCGGCAUGGUCCCAGCCUCCUAGCUGGCCCCGGCUGGGCAACAUUCCGAGGGGACCGUCCCCUCGGUAAUGGCGAAUGGGACCCA, the self-cleavage was determined as 0.0583.
